The values that follow come from the supplement of paper PMC10126150.

± gives the standard deviation of the averaged measurements.

In the series the test system is ATP. Description: switch fluorescence ratio, 500 uM ATP over buffer (Cy3 cluster intensity, sum of 5 cycles each) (fold (ratio)); higher = stronger signal-on switching upon ATP binding; sequences stand for … in TCGTCGGCAGCGTCAGATGTGTATAAGAGACAGTTTTTTTTTTTTTTTTTTTTTTTTT…TC. Conditions: aptamer strand: ATP DNA aptamer (quencher-CACCTGGGGGAGTATTGCGGAGGAAGG + anchor), 100 nM annealed; ATP concentration: 500 uM. The procedure, abridged: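 Clusters with intensities outside 100-1000 RFU were excluded. The remaining Cy3-labelled switching-strand clusters on a modified Illumina MiSeq flow-cell had been annealed to 100 nM quencher-labelled ATP aptamer and imaged in selection buffer, then after 15 min with 500 uM ATP at 22 °C, for five cycles separated by NaOH stripping and re-annealing. The fluorescence ratio, averaged per switch-domain sequence, is each cluster's summed target-cycle Cy3 intensity over its summed buffer-cycle Cy3 intensity.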
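Note: ATP exposure 15 min at 22 °C before imaging.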

Regarding AGAATAAGTT, the switch fluorescence ratio was determined as 1.013 ± 0.0018.

With CTCGGCTGTA, the switch fluorescence ratio was 1.08 ± 0.019.

Turning to AAGCAGTCGA, the switch fluorescence ratio came out at 1.09 ± 0.015.

For AATTTTTTGG, the switch fluorescence ratio turned out to be 1 ± 0.046.

Consider CAGCGCGTGC, for which the switch fluorescence ratio was 1.01 ± 0.051.

With GAAATGAGGG, the switch fluorescence ratio stood at 0.977 ± 0.047.

As for TACAATCGGA, the switch fluorescence ratio turned out to be 0.9791 ± 0.0067.

For GCGTTGAGGG, the switch fluorescence ratio turned out to be 0.952 ± 0.079.

AGGCTGGGGA: the switch fluorescence ratio was 1.01 ± 0.057.

Regarding TGCAATGTTT, the switch fluorescence ratio turned out to be 1.38 ± 0.52.

Regarding GGCTTTTGCT, the switch fluorescence ratio stood at 0.9978 ± 0.0038.

As for ATTGATTAGA, the switch fluorescence ratio came to 0.99 ± 0.043.

As for GAATTATGCC, the switch fluorescence ratio is 0.977 ± 0.021.

Take GGGTTGTTTG: the switch fluorescence ratio is 0.992 ± 0.036.

Take TATTCAGGCA: the switch fluorescence ratio was determined as 1.01 ± 0.041.

Regarding GGGGGCAGAT, the switch fluorescence ratio worked out at 0.97 ± 0.018.

Turning to CCTATATTAA, the switch fluorescence ratio came to 0.9853 ± 0.0066.

Regarding GGAAACAGTT, the switch fluorescence ratio came out at 1 ± 0.032.

Take AATTTTGCTT: the switch fluorescence ratio is 1.01 ± 0.015.

For the sequence GCCATTTGAC, the switch fluorescence ratio was determined as 1.02 ± 0.042.

Consider TTGATTTTGT, for which the switch fluorescence ratio is 1.01 ± 0.019.

Turning to ACTATTCGCT, the switch fluorescence ratio amounted to 1.02 ± 0.01.

As to GTTTTATGCG, the switch fluorescence ratio came out at 1.02 ± 0.035.

As to CCTTTTAGGT, the switch fluorescence ratio was 0.9846 ± 0.0043.

Turning to TTTATAGTAT, the switch fluorescence ratio is 0.993 ± 0.03.

Take CCAGGGATCA: the switch fluorescence ratio turned out to be 1.049 ± 0.0023.

CGTCCTAGGG: the switch fluorescence ratio came out at 1.04 ± 0.043.

Take AGTAAATTCT: the switch fluorescence ratio came out at 0.9887 ± 0.0015.

Regarding ATGTCATATG, the switch fluorescence ratio was 0.994 ± 0.031.

Turning to TGGTTTCCCG, the switch fluorescence ratio is 0.975 ± 0.044.

As for TTCGAGTAGT, the switch fluorescence ratio came to 0.998 ± 0.03.

As for TAAAGTTTTG, the switch fluorescence ratio is 0.995 ± 0.017.

For the sequence AATGGTGTAA, the switch fluorescence ratio came to 0.99259 ± 0.00066.

Take GAGTTAATGC: the switch fluorescence ratio amounted to 1.01 ± 0.049.

Take ACAGCATGCC: the switch fluorescence ratio turned out to be 0.997 ± 0.013.

Consider TCGAAAGCTT, for which the switch fluorescence ratio is 1.34 ± 0.42.

In the case of GGAGTAAGAG, the switch fluorescence ratio stood at 1.11 ± 0.21.

As to GGGCCTTTAG, the switch fluorescence ratio was determined as 1.02 ± 0.033.

With GTTATGAGTC, the switch fluorescence ratio was found to be 1.02 ± 0.03.

In the case of TTTAAATGGG, the switch fluorescence ratio was 1 ± 0.021.

Regarding GAGTGGGGAT, the switch fluorescence ratio stood at 1.02 ± 0.021.

For CCTTTGGGGT, the switch fluorescence ratio was 1.69 ± 1.2.

For CCAGCAAGAT, the switch fluorescence ratio amounted to 4.63 ± 0.51.

Regarding ACGGGGGGTA, the switch fluorescence ratio was determined as 1.02 ± 0.035.

As to CGTTGGGATC, the switch fluorescence ratio turned out to be 0.99281 ± 0.00021.

Consider GATATAAACG, for which the switch fluorescence ratio was 1.02 ± 0.03.

For GGTGTATTTA, the switch fluorescence ratio came to 1.02 ± 0.017.

Turning to GCGAGGGTTC, the switch fluorescence ratio was 0.991 ± 0.029.

On to GGATCCGGGA, for which the switch fluorescence ratio worked out at 1.0104 ± 2.5e-05.

For GGCTATTATT, the switch fluorescence ratio was 0.985 ± 0.025.

Regarding CGCTAAAGTG, the switch fluorescence ratio was determined as 1.06 ± 0.086.

CCGTTGACCG: the switch fluorescence ratio was 1.07 ± 0.057.

In the case of TCAGAAGTAA, the switch fluorescence ratio stood at 1.317 ± 0.0066.

Turning to GAACTTGGCG, the switch fluorescence ratio came out at 1.01 ± 0.041.

Regarding ATGGTAGTTG, the switch fluorescence ratio is 0.985 ± 0.018.

With CTGAGGGGGA, the switch fluorescence ratio amounted to 1.09 ± 0.17.

Turning to AAACCACCCA, the switch fluorescence ratio is 1.1 ± 0.019.

On to TGTGCCGCGC, for which the switch fluorescence ratio came out at 1.06 ± 0.07.

As to CTAGGGGATA, the switch fluorescence ratio was found to be 1.02 ± 0.014.

Turning to GGGGGCGGTT, the switch fluorescence ratio is 1.02 ± 0.026.

Regarding GCATTGTGTA, the switch fluorescence ratio worked out at 0.9995 ± 0.003.

As to AAGGCGGGGG, the switch fluorescence ratio amounted to 0.986 ± 0.016.

Consider TTTCTTACGC, for which the switch fluorescence ratio is 1.07 ± 0.066.

For ACTGGCCCCG, the switch fluorescence ratio stood at 1.34 ± 0.41.

In the case of AGGTCCCAGC, the switch fluorescence ratio is 1 ± 0.02.

Turning to ATGTAAGCCC, the switch fluorescence ratio turned out to be 0.992 ± 0.022.

Turning to TCAAAGCGTT, the switch fluorescence ratio turned out to be 0.986 ± 0.031.

In the case of GGGTAATCTT, the switch fluorescence ratio turned out to be 0.991 ± 0.028.

Regarding CGTTGTGGGG, the switch fluorescence ratio stood at 0.966 ± 0.023.

In the case of TTTCATGTTT, the switch fluorescence ratio was found to be 0.9683 ± 0.007.

As for GGGAAATCAG, the switch fluorescence ratio turned out to be 0.9838 ± 0.0076.

As to AGAAACGTAT, the switch fluorescence ratio stood at 1.13 ± 0.013.

For TGCTTGATGG, the switch fluorescence ratio worked out at 0.9851 ± 0.0044.

Regarding TTAGTAGAGT, the switch fluorescence ratio was determined as 1 ± 0.013.

As for GGTCATTGGA, the switch fluorescence ratio amounted to 1.09 ± 0.064.

As to TGTGAGTCGG, the switch fluorescence ratio is 0.948 ± 0.03.

For the sequence TAAGGAGTAG, the switch fluorescence ratio came out at 0.991 ± 0.027.

For the sequence AAGTTTAGTC, the switch fluorescence ratio turned out to be 1.03 ± 0.034.

Turning to GGGACCGGTG, the switch fluorescence ratio worked out at 1.03 ± 0.02.

As to GGCTTCGGGA, the switch fluorescence ratio was found to be 1.01 ± 0.054.

Consider AAGGGGTTAA, for which the switch fluorescence ratio was found to be 1.03 ± 0.022.

With ATCGACCGGC, the switch fluorescence ratio turned out to be 1.04 ± 0.071.

Take TTTCGACTGG: the switch fluorescence ratio amounted to 0.996 ± 0.02.

For CGTATTCTAG, the switch fluorescence ratio came out at 1 ± 0.023.

Regarding GTTATTCATT, the switch fluorescence ratio worked out at 1.004 ± 0.0034.

Consider CATTGCCCGT, for which the switch fluorescence ratio turned out to be 0.989 ± 0.017.

As for GTGGAAGGTA, the switch fluorescence ratio was 0.991 ± 0.011.

For the sequence GTGGCCAACC, the switch fluorescence ratio amounted to 1.02 ± 0.0022.

Take GCTGTGTAGA: the switch fluorescence ratio came out at 1.073 ± 0.0021.

For TCGTAAGGGT, the switch fluorescence ratio came out at 1.18 ± 0.26.

Take GACTATCTAG: the switch fluorescence ratio came to 0.975 ± 0.056.

For AAATAAGATT, the switch fluorescence ratio was 1.02 ± 0.018.

For the sequence TGGAGGTTTT, the switch fluorescence ratio was determined as 1.07 ± 0.045.

Consider TGCTGGTAGC, for which the switch fluorescence ratio worked out at 0.995 ± 0.042.

Consider CCAGGGGTAA, for which the switch fluorescence ratio stood at 1.17 ± 0.055.

Take CCGTGGGGGG: the switch fluorescence ratio amounted to 1.02 ± 0.083.

TGCTTCATTT: the switch fluorescence ratio is 1.023 ± 0.0018.

In the case of AATGAGGGAG, the switch fluorescence ratio is 0.995 ± 0.01.

Turning to GGTGTTGTTT, the switch fluorescence ratio came to 0.963 ± 0.019.

As to AAATTGGGGA, the switch fluorescence ratio came to 0.986 ± 0.014.

Take CTTGAAGGTG: the switch fluorescence ratio was 1.595 ± 0.015.

In the case of TGCAGTGGGA, the switch fluorescence ratio stood at 1.02 ± 0.016.

In the case of ACGGTGTAGG, the switch fluorescence ratio amounted to 1.11 ± 0.12.

As to AAATTGGTAA, the switch fluorescence ratio was 1 ± 0.017.

For ATTTGCCGAC, the switch fluorescence ratio amounted to 0.975 ± 0.019.

On to TCCCGGGTTT, for which the switch fluorescence ratio was found to be 1.1 ± 0.14.

AGAGGGGCGT: the switch fluorescence ratio is 0.999 ± 0.033.

Regarding AGAACGGTGG, the switch fluorescence ratio turned out to be 0.9693 ± 0.0096.

Regarding TTTTAAAGCA, the switch fluorescence ratio amounted to 1.01 ± 0.03.

With CACTGTCTT, the switch fluorescence ratio came out at 0.991 ± 0.019.

As for GGGGTGTAGT, the switch fluorescence ratio worked out at 0.9854 ± 0.0053.

For ATGGGGAAGC, the switch fluorescence ratio came out at 1.03 ± 0.058.

Take TATCTGTGCT: the switch fluorescence ratio is 0.994 ± 0.019.

For GGGTTTCGAC, the switch fluorescence ratio is 1.02 ± 0.013.

Take AATGAGTTTG: the switch fluorescence ratio came to 0.991 ± 0.019.

Turning to GCAAGAGTGG, the switch fluorescence ratio stood at 1 ± 0.034.

Regarding AAAGCGTGTT, the switch fluorescence ratio came to 1.02 ± 0.05.

As for CTCGAGGGGG, the switch fluorescence ratio was 1.18 ± 0.34.

In the case of TCACCGATTC, the switch fluorescence ratio stood at 1.11 ± 0.024.

Turning to ATATCTTTCT, the switch fluorescence ratio is 1.006 ± 0.0023.
